B1: TPR t1 (parent)
chain: GACCAAUCUGCCCUCAGAGCUCGAGAACAUCUUCGGAUGCAGAGGAGGCAGGCUUCGGUGGCGCGAUAGCGCCAACGUCCUCAACCUCCAAUGCAUCCCACCACAUGAUGAUGCCUGAAGAGCCUUGGUUUUUUG

Variants of: B1
Assay: polymerase ribozyme fitness, log enrichment relative to wild type (log ratio); higher = more active; in vitro selection for triplet polymerase activity
Outline: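 Streptavidin-bead capture of gel-excised extended constructs, followed by RT-PCR, closed a single triplicate in vitro selection round. That round began by annealing PCR-built, transcribed mutant libraries of each subunit of a heterodimeric triplet polymerase ribozyme with a biotinylated primer, the partner subunit and triplets, then incubating them frozen at −7 °C. After Illumina sequencing of inputs and outputs, genotypes needed ≥10 input reads and ≥1 read per output. Fitness is the base-2 logarithm of genotype enrichment over wild-type enrichment, using inverse-variance-weighted replicate averages.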

Variant	polymerase ribozyme fitness (log ratio)
GACCAAUCUGCCCUCAGAGCUCGAGAACAUCUUCGGAUGCAGAGGAGGCAGGCUUCGGUGGCGCGAUAGCGCCAACGUCCUCAACCUCCAAUGCAUCCCACCACAUGAUGAUGCCUUAAGAGCCUUUGUUUUUUG [G117U G127U]	-4.77
GACCAAUCUGCCCUCAGAGCUCGAGAACAUCUUCGGAUGCAGAGGAGGCAGGCUUCGGUGGCGCGAUAGCGCCAACGUCCUCAACCUCCAAUGCAUCCCACCACAUGAUGAUGCCUUAAGAGCCUUGGUCUUUUG [G117U U130C]	-2.04
GACCAAUCUGCCCUCAGAGCUCGAGAACAUCUUCGGAUGCAGAGGAGGCAGGCUUCGGUGGCGCGAUAGCGCCAACGUCCUCAACCUCCAAUGCAUCCCACCACAUGAUGAUGCCUGAAUAGCCUUUGUUUUUUG [G120U G127U]	1.64
GACCAAUCUGCCCUCAGAGCUCGAGAACAUCUUCGGAUGCAGAGGAGGCAGGCUUCGGUGGCGCGAUAGCGCCAACGUCCUCAACCUCCAAUGCAUCCCACCACAUGAUGAUGCCUGAAUAGCCUUCGUUUUUUG [G120U G127C]	-0.262
GACCAAUCUGCCCUCAGAGCUCGAGAACAUCUUCGGAUGCAGAGGAGGCAGGCUUCGGUGGCGCGAUAGCGCCAACGUCCUCAACCUCCAAUGCAUCCCACCACAUGAUGAUGCCUGAACAGCCUUAGUUUUUUG [G120C G127A]	0.0309
GACCAAUCUGCCCUCAGAGCUCGAGAACAUCUUCGGAUGCAGAGGAGGCAGGCUUCGGUGGCGCGAUAGCGCCAACGUCCUCAACCUCCAAUGCAUCCCACCACAUGAUGAUGCCUGAACAGCCUUCGUUUUUUG [G120C G127C]	-0.522
GACCAAUCUGCCCUCAGAGCUCGAGAACAUCUUCGGAUGCAGAGGAGGCAGGCUUCGGUGGCGCGAUAGCGCCAACGUCCUCAACCUCCAAUGCAUCCCACCACAUGAUGAUGCCUGAAGCGCCUUGGUUUUAUG [A121C U133A]	-0.797
GACCAAUCUGCCCUCAGAGCUCGAGAACAUCUUCGGAUGCAGAGGAGGCAGGCUUCGGUGGCGCGAUAGCGCCAACGUCCUCAACCUCCAAUGCAUCCCACCACAUGAUGAUGCCUGAAGAAACUUGGUUUUUUG [G122A C123A]	-0.665
GACCAAUCUGCCCUCAGAGCUCGAGAACAUCUUCGGAUGCAGAGGAGGCAGGCUUCGGUGGCGCGAUAGCGCCAACGUCCUCAACCUCCAAUGCAUCCCACCACAUGAUGAUGCCUGAAGUGGCUUGGUUUUUUG [A121U C123G]	1.92
GACCAAUCUGCCCUCAGAGCUCGAGAACAUCUUCGGAUGCAGAGGAGGCAGGCUUCGGUGGCGCGAUAGCGCCAACGUCCUCAACCUCCAAUGCAUCCCACCACAUGAUGAUGCCUGAAGGGCCUUGAUUUUUUG [A121G G128A]	0.956
GACCAAUCUGCCCUCAGAGCUCGAGAACAUCUUCGGAUGCAGAGGAGGCAGGCUUCGGUGGCGCGAUAGCGCCAACGUCCUCAACCUCCAAUGCAUCCCACCACAUGAUGAUGCCUUAAGAGCCUUGGUUUUAUG [G117U U133A]	-3.13
GACCAAUCUGCCCUCAGAGCUCGAGAACAUCUUCGGAUGCAGAGGAGGCAGGCUUCGGUGGCGCGAUAGCGCCAACGUCCUCAACCUCCAAUGCAUCCCACCACAUGAUGAUGCCUCAAGAGCCUUGAUUUUUUG [G117C G128A]	-5.33
GACCAAUCUGCCCUCAGAGCUCGAGAACAUCUUCGGAUGCAGAGGAGGCAGGCUUCGGUGGCGCGAUAGCGCCAACGUCCUCAACCUCCAAUGCAUCCCACCACAUGAUGAUGCCUCAAUAGCCUUGGUUGUUUG [G117C G120U U131G]	-4.67
GACCAAUCUGCCCUCAGAGCUCGAGAACAUCUUCGGAUGCAGAGGAGGCAGGCUUCGGUGGCGCGAUAGCGCCAACGUCCUCAACCUCCAAUGCAUCCCACCACAUGAUGAUGCCUCAAGAGCCUUGGUUCUUUG [G117C U131C]	-3.27
GACCAAUCUGCCCUCAGAGCUCGAGAACAUCUUCGGAUGCAGAGGAGGCAGGCUUCGGUGGCGCGAUAGCGCCAACGUCCUCAACCUCCAAUGCAUCCCACCACAUGAUGAUGCCUGAAAAGCCUUGGUGUUUUG [G120A U130G]	0.245
GACCAAUCUGCCCUCAGAGCUCGAGAACAUCUUCGGAUGCAGAGGAGGCAGGCUUCGGUGGCGCGAUAGCGCCAACGUCCUCAACCUCCAAUGCAUCCCACCACAUGAUGAUGCCUGAAAAGCCUUGGUCUUUUG [G120A U130C]	0.856
GACCAAUCUGCCCUCAGAGCUCGAGAACAUCUUCGGAUGCAGAGGAGGCAGGCUUCGGUGGCGCGAUAGCGCCAACGUCCUCAACCUCCAAUGCAUCCCACCACAUGAUGAUGCCUGAACAGCCUUGGAUUUUUG [G120C U129A]	-1.15
GACCAAUCUGCCCUCAGAGCUCGAGAACAUCUUCGGAUGCAGAGGAGGCAGGCUUCGGUGGCGCGAUAGCGCCAACGUCCUCAACCUCCAAUGCAUCCCACCACAUGAUGAUGCCUCAAGGGCCUUGGUUUUUUG [G117C A121G]	-2.23
GACCAAUCUGCCCUCAGAGCUCGAGAACAUCUUCGGAUGCAGAGGAGGCAGGCUUCGGUGGCGCGAUAGCGCCAACGUCCUCAACCUCCAAUGCAUCCCACCACAUGAUGAUGCCUGAACAGCCUUGGUUUUAUG [G120C U133A]	1.48
GACCAAUCUGCCCUCAGAGCUCGAGAACAUCUUCGGAUGCAGAGGAGGCAGGCUUCGGUGGCGCGAUAGCGCCAACGUCCUCAACCUCCAAUGCAUCCCACCACAUGAUGAUGCCUGAAGCGUCUUGGUUUUUUG [A121C C123U]	0.54
GACCAAUCUGCCCUCAGAGCUCGAGAACAUCUUCGGAUGCAGAGGAGGCAGGCUUCGGUGGCGCGAUAGCGCCAACGUCCUCAACCUCCAAUGCAUCCCACCACAUGAUGAUGCCUGAAGCACCUUGGUUUUUUG [A121C G122A]	1.31

From the RNAGym collection of RNA variant scans (doi:10.1073/pnas.2313332121)
